Results taken from patent publication US20250002610A1 (Genmab, published 2025).

Assays:
[1] = molecular target: T1, human DR4 (Death Receptor 4), cell surface expressed on human tumor cell lines (human, UniProt O00220 24-468); assay: flow cytometry, HCT-15 cells, n = 2
T1 construct: also called TNFRSF10A; TRAIL-R1
T1 sequence: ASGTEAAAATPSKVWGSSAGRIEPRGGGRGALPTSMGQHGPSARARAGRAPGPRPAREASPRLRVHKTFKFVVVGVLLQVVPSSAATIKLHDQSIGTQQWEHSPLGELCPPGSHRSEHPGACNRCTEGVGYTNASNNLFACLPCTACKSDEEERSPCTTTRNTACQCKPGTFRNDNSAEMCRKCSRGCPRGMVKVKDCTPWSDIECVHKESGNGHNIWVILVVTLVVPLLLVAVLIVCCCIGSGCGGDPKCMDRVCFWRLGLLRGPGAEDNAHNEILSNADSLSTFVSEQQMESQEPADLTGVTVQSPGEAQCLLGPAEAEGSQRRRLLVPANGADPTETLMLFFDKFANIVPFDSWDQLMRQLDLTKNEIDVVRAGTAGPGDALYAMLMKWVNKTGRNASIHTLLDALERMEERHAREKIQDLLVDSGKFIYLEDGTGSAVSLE

[2] = molecular target: T1, human DR4 (Death Receptor 4), cell …; assay: flow cytometry, MDA-MB-231 cells, n = 2
[3] = molecular target: T1, human DR4 (Death Receptor 4), cell …; assay: flow cytometry, MDA-MB-231 cells, N = 2
[4] = molecular target: T2, cynomolgus monkey FAPα on Expi293F cells (cynomolgus monkey (Macaca fascicularis), UniProt Q12884 1-760 (human entry)); assay: flow cytometry, Expi293F cells expressing cynomolgus monkey FAPα, n = 3
T2 sequence: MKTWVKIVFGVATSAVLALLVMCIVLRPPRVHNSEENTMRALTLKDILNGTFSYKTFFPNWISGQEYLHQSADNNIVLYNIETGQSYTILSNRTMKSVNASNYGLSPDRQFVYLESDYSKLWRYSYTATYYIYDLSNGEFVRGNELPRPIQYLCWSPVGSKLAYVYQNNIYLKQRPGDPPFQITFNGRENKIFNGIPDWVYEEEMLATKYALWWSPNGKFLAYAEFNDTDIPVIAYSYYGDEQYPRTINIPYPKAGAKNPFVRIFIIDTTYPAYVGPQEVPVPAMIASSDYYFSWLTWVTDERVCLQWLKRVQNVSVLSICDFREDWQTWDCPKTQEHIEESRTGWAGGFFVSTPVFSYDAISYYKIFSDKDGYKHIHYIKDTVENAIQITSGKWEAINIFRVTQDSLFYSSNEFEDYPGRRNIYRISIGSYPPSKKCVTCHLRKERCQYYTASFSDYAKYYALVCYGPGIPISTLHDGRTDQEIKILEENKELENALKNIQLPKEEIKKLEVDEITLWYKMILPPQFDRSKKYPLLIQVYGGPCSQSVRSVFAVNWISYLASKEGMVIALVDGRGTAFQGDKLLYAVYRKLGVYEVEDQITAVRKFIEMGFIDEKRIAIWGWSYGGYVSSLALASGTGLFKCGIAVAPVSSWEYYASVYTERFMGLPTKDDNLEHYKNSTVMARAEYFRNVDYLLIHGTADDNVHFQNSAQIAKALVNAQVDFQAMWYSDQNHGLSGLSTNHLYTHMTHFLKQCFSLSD
Experimental: Binding of BisG1-FAPα-FERL/DR4-FERR, BisG1-FAPα-FEAL/b12-FEAR and IgG1-FAPα-FERL to FAPα of species commonly used for nonclinical toxicology studies was assessed by flow cytometry using Expi293F cells transiently expressing FAPα from different animal species. IgG1-b12 was included as negative control.
Expi293F cells expressing recombinant FAPα from various species (human, cynomolgus monkey, dog, pig, rat or mouse) were seeded (20,000 cells/well) in 96-Well round bottom plates (Greiner Bio-one, Cat #650101). Antibody dilutions were prepared using FACS buffer, consisting of PBS (Capricorn Scientific, Cat #PBS-10XA, diluted to 1×PBS in distilled water)+1% BSA (Roche, Cat #10735086001)+0.02% Sodium Azide (Bio-World, Cat #41920044-3). Plates were centrifuged, supernatant was removed, and cells were resuspended in 100 μL of antibody dilutions (concentration range 30-0.00017 μg/mL with three-fold serial dilutions using FACS buffer) of BisG1-FAPα-FERL/DR4-FERR, BisG1-FAPα-FEAL/b12-FEAR, IgG1-FAPα-FERL and IgG1-b12 and incubated for 30 min at 4° C. […] After 30 min incubation at 4° C., cells were washed with FACS buffer and resuspended in FACS buffer supplemented with TO-PRO-3 Iodide viability marker (Invitrogen, Cat #T3605, diluted 1:4,000). Antibody binding to viable cells (gMFI of PE on TO-PRO-3 negative cells) was analyzed by flow cytometry on a FACS Celesta and FACS_Diva software (first two experiments) or iQue® 3 and FlowJo software (last experiment). gMFI was determined and visualized using GraphPad Prism. Binding curves were analyzed using nonlinear regression analysis. The concentration (pg/mL) at which 50% of the maximal effect was observed (EC₅₀) was derived from the fitted curves.

EC50 [4]: 0.16 µg/mL
B1: BisG1-FAPα-FERL/DR4-FERR (bispecific antibody, human IgG1, kappa, lambda)
heavy 1: EVQLLESGGGLVQPGGSPRLSCEASGFTFSSYALSWVRQAPGKGLEWVSAISGSGGGRYYADSVKGRFTISRDNSKNTLFLQMNSLRAEDTAVYYCAKEGYSSSGTYWDHWGQGTLVTVSSASTKGPSVFPLAPSSKSTSGGTAALGCLVKDYFPEPVTVSWNSGALTSGVHTFPAVLQSSGLYSLSSVVTVPSSSLGTQTYICNVNHKPSNTKVDKRVEPKSCDKTHTCPPCPAPEFERGPSVFLFPPKPKDTLMISRTPEVTCVVVDVSHEDPEVKFNWYVDGVEVHNAKTKPREEQYNSTYRVVSVLTVLHQDWLNGKEYKCKVSNKALPAPIEKTISKAKGQPREPQVYTLPPSREEMTKNQVSLTCLVKGFYPSDIAVEWESNGQPENNYKTTPPVLDSDGSFLLYSKLTVDKSRWQQGNVFSCSVMHEALHNHYTQKSLSLSPG
light 1: AIQMTQSPSSVSASVGDRVTITCRASQGVSSWLAWYQQKPGRAPKLLIYVASTLQSGVPSRFSGSGSGTDFTLTINSLQPEDFATYYCQQANSFPPTFGQGTRLEMKRTVAAPSVFIFPPSDEQLKSGTASVVCLLNNFYPREAKVQWKVDNALQSGNSQESVTEQDSKDSTYSLSSTLTLSKADYEKHKVYACEVTHQGLSSPVTKSFNRGEC
heavy 2: QVQLQESGPGLVKPSGTLSLTCAVSGGSISSYSWWSWIRQPPGKGLEWIGELYHSGSTNYNPSLKSRVTISVDKSKNQFSLKLRSVTAADTAVYYCVRGVATIDYWGQGTLVTVSSASTKGPSVFPLAPSSKSTSGGTAALGCLVKDYFPEPVTVSWNSGALTSGVHTFPAVLQSSGLYSLSSVVTVPSSSLGTQTYICNVNHKPSNTKVDKRVEPKSCDKTHTCPPCPAPEFERGPSVFLFPPKPKDTLMISRTPEVTCVVVDVSHEDPEVKFNWYVDGVEVHNAKTKPREEQYNSTYRVVSVLTVLHQDWLNGKEYKCKVSNKALPAPIEKTISKAKGQPREPQVYTLPPSREEMTKNQVSLTCLVKGFYPSDIAVEWESNGQPENNYKTTPPVLDSDGSFFLYSRLTVDKSRWQQGNVFSCSVMHEALHNHYTQKSLSLSPG
light 2: QSALTQPPSASGSPGQSVTISCTGTSSDVGGYNFVSWYQQDPGKAPKLLIYEVTKRPSGVPDRFSGSKSGNTASLTVSGLQAEDEADYYCSSYAGSNNVMFGGGTKLTVLGQPKAAPSVTLFPPSSEELQANKATLVCLISDFYPGAVTVAWKADSSPVKAGVETTTPSKQSNNKYAASSYLSLTPEQWKSHRSYSCQVTHEGSTVEKTVAPTECS
notes: Human IgG1 bispecific made by controlled Fab-arm exchange of IgG1-FAPα-FERL and IgG1-DR4-FERR; monovalent for FAPα and for DR4; also called GEN1057
EC50 [1]: 0.69 µg/mL | EC50 [2]: 1.24 µg/mL | EC50 [3]: 0.72 µg/mL
